In US20250066509A1 (SHANGHAI JMT BIO TECHNOLOGY, published 2025):
Positions count from the first letter of the chain named. Read-outs that look alike come from different tables or passages of the source. One block for each binder: values may come before it.

How the values were obtained:
[1] = molecular target: T1, human αKlotho extracellular segment protein (human, UniProt Q9UEF7 34-981); experiment: ELISA; extracellular segment protein on nickel-coated plate, antibody titrated, anti-human IgG Fab-HRP
T1 construct: extracellular domain
T1 sequence (looked up): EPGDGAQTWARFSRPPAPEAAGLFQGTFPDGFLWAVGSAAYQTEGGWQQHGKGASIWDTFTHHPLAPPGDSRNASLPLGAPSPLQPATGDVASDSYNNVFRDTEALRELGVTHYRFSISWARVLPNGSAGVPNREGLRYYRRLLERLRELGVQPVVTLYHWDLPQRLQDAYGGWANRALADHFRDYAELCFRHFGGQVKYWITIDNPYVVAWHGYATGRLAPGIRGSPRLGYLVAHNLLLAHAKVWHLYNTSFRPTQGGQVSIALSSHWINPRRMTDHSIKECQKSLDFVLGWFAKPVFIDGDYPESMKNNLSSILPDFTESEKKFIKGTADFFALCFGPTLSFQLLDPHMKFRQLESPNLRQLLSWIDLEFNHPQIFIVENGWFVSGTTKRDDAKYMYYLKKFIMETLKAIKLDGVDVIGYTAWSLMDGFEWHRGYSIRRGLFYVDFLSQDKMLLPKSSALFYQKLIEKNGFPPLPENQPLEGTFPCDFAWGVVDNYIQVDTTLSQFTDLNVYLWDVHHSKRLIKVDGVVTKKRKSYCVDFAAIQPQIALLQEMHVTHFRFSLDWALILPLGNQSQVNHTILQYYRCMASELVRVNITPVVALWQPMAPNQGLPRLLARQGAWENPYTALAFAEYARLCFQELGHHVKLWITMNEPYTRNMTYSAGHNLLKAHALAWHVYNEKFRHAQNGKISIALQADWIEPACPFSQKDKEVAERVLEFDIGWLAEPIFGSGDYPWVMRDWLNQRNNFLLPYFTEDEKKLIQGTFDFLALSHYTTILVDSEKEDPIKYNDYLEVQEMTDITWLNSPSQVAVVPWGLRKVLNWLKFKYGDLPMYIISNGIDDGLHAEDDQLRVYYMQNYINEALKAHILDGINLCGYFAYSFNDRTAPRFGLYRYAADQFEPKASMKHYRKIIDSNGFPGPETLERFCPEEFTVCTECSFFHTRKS
Description: In this Example, the binding of some antibodies in Example 1 to human βKlotho, human αKlotho, and mouse βKlotho was detected using an ELISA assay as described below. A solution of human βKlotho (R&D systems), human αKlotho (R&D systems), or mouse βKlotho (R&D systems) extracellular segment protein at a specified concentration was added to a nickel-coated 96-well plate (Pierce) and the plate was incubated overnight at room temperature. The next day, the plate was blocked with PBS/1% BSA, and then antibodies at various concentrations were added to the wells. After incubating the plate for 1.5 hours at room temperature, a HRP-labeled anti-human IgG Fab secondary antibody was added to the wells and the plate was incubated for 30 minutes at room temperature. After the substrate was added and reacted at room temperature for 15 minutes, the reaction-stopping solution was added. OD₄₅₀ values were read. Exemplary data of antibodies' binding to human βKlotho, human αKlotho, and mouse βKlotho in the ELISA assay are as follows.

[2] = molecular target: T2, cynomolgus monkey FGFR1c/βKlotho receptor (cynomolgus monkey, UniProt A0A2K5WB58 1-1044); experiment: cell-based or functional assay
[3] = molecular target: T2, cynomolgus monkey FGFR1c/βKlotho …; experiment: cell-based or functional assay; remark: listed apart in the source
[4] = molecular target: human FGFR4/βKlotho receptor (human, UniProt P22455 22-802); experiment: cell-based or functional assay
[5] = molecular target: T2, cynomolgus monkey FGFR1c/βKlotho …; experiment: cell-based or functional assay; remark: listed apart in the source
[6] = molecular target: T3, human βKlotho extracellular segment protein (human, UniProt Q86Z14 53-996); experiment: Gator BLI; antibody captured on Protein A probe, human βKlotho ECD 400 nM-50 nM in solution
T3 construct: Captured by nickel plate or anti-His antibody, so His-tagged; also called human βKlotho extracellular protein
T3 sequence: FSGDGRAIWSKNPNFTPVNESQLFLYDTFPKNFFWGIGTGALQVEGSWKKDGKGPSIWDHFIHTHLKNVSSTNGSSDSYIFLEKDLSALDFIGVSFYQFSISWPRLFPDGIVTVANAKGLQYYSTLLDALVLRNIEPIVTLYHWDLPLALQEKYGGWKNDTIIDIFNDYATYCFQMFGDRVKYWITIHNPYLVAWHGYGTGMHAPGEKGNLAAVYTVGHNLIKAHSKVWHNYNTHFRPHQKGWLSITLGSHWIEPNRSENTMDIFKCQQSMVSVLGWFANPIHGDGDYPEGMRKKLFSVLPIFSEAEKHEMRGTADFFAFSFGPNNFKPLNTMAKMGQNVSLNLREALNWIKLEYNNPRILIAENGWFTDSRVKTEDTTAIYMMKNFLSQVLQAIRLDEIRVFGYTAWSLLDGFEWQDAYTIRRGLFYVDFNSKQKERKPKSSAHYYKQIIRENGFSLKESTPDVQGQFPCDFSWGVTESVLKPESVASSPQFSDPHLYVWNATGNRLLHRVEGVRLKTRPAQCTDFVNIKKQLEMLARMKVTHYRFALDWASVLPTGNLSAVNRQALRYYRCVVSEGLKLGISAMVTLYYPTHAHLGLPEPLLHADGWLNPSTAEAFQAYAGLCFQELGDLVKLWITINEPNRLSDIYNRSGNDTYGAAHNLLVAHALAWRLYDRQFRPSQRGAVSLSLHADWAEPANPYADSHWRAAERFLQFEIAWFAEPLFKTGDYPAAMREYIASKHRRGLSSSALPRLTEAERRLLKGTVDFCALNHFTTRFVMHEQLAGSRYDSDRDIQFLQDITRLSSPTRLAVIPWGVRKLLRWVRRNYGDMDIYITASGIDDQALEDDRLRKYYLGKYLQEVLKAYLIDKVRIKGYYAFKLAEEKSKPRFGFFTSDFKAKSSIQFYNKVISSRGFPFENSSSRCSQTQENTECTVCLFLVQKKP
Description: The antibodies described above were tested for affinity using Gator (Gator bio). Briefly, an antibody was first captured using a probe coated with Protein A (Gator bio). After the baseline was monitored for 60 seconds, the antibody-to-the antigen binding was determined with the human βKlotho extracellular segment protein described above at varying concentrations (400 nM-50 nM). Then, the dissociation was detected in a K buffer (Gator bio). Meanwhile, the function of an antibody to activate the human or cynomolgus monkey FGFR1c/βKlotho receptor was detected using the reporter-based assay described in Example 2.

T2 sequence (A0A2K5WB58 entry or part of it): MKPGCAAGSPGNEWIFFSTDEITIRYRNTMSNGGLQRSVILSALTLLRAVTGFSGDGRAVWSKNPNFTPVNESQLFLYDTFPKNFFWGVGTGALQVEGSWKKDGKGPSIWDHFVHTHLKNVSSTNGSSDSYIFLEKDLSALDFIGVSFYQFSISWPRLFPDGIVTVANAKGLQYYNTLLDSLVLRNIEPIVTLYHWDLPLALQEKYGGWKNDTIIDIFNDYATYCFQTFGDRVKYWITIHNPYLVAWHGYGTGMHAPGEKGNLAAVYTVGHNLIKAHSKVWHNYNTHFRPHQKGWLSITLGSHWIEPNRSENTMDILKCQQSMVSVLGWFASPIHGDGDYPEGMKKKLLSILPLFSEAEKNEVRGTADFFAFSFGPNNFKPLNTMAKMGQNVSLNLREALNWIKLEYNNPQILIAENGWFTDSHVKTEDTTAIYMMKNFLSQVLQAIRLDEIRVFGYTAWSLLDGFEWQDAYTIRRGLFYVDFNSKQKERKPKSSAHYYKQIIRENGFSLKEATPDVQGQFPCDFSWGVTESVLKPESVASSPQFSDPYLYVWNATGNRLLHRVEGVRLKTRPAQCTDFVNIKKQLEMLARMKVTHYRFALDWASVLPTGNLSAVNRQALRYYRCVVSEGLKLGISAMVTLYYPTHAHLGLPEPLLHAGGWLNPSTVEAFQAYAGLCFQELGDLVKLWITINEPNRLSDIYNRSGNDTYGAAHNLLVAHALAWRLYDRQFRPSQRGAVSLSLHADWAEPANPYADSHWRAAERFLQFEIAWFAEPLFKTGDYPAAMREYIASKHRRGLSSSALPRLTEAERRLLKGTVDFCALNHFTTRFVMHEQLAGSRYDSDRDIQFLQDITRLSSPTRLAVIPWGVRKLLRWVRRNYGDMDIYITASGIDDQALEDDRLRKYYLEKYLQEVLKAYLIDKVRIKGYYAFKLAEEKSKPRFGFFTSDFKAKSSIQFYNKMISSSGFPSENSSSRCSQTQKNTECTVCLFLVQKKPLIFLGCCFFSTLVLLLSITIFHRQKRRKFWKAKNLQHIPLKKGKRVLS
human FGFR4/βKlotho receptor, sequence (P22455 22-802, chain 1 of 2): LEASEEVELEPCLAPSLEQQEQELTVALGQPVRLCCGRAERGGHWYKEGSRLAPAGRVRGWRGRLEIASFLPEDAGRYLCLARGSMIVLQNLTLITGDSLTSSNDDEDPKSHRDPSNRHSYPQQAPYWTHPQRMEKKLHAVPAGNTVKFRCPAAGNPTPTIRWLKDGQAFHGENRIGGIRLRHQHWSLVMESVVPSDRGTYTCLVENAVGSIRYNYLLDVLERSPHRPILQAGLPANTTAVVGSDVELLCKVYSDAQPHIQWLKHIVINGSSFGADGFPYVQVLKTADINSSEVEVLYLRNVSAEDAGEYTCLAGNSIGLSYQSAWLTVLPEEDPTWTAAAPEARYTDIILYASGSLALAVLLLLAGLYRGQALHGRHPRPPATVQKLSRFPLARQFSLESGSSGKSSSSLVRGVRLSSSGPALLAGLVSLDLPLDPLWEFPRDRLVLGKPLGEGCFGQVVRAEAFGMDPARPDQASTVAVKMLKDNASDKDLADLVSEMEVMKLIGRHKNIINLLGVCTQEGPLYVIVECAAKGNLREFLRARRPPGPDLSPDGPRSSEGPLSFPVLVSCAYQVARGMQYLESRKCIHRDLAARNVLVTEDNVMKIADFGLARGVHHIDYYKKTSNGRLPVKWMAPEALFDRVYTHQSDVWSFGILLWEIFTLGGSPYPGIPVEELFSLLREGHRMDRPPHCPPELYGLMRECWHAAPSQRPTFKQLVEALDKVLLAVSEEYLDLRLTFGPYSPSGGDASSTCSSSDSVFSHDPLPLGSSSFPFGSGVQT
human FGFR4/βKlotho receptor, sequence (chain, as listed by the source, chain 2 of 2): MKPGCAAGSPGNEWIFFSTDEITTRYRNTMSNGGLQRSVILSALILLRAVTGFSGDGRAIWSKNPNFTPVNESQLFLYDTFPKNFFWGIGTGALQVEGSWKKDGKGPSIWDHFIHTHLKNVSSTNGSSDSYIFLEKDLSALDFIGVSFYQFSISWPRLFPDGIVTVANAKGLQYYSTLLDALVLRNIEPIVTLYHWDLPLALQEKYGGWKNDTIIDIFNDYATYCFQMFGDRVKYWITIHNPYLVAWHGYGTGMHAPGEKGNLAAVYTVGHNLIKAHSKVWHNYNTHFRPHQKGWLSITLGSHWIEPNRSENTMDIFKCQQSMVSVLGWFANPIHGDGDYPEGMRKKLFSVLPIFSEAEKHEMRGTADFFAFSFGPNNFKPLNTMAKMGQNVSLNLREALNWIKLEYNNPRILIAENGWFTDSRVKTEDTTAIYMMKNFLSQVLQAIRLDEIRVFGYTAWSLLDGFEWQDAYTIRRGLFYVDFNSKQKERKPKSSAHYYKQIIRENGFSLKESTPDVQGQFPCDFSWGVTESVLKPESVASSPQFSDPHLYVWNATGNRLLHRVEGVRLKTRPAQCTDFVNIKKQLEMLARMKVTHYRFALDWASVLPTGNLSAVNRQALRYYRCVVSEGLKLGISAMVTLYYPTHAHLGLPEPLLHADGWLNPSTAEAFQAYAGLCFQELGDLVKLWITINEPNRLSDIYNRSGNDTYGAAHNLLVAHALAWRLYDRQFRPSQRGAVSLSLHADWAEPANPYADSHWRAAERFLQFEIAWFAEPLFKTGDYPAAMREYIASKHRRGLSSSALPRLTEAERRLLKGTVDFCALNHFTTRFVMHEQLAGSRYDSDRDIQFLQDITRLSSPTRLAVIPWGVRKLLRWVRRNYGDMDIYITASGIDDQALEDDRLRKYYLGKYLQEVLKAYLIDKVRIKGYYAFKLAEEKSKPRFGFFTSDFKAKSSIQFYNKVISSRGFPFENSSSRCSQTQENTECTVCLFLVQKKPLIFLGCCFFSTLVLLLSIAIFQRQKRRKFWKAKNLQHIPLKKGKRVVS

B1: CB-8 (antibody, V domains shown)
VH: EVQLVQSGAEVKKPGASVKVSCKASGYTFTSYGISWVRQAPGQGLEWMGWISAYNGNTNYAQKLQGRVTMTTDTSTSTAYMELRSLRSDDTAVYYCATLYGSGSLYYWGQGTLVTVSS
VL: DIVMTQSPSSLSAPVGDRVTITCQASQDIRNYINWFQQKPGKAPKLLIYAASSLQSGVPSRFSGSGSGTDFTLTISSLQPEDFATYYCQQSYSTPQWTFGQGTKVEIK
EC50 [1]: > 100 nM
EC50 for antibody-induced cell activation, as determined by the reporter-based assay [2]: 2.86 nM
EC50, luciferase reporter-based assay (receptor activation) [3]: 4.89 nM

B3: CB-8-23 (antibody, human IgG1, V domains shown)
VH: B1 VH with Y32G, N57R
VL: B1 VL with S53F
EC50 for antibody-induced cell activation, as determined by the reporter-based assay [2]: 0.55 nM
Kd [6]: 7.08 nM
koff [6]: 0.000173 s⁻¹
kon [6]: 24500 M⁻¹ s⁻¹

B5: CB-8-14 (antibody, human IgG1, V domains shown)
VH: B1 VH with T30R, N55T
VL: B1 VL with L54R
EC50 for antibody-induced cell activation, as determined by the reporter-based assay [2]: 1.08 nM

B9: CB-8-24 (antibody, V domains shown)
VH: B1 VH with Y100L, G101P
VL: B1 VL
EC50 for antibody-induced cell activation, as determined by the reporter-based assay [2]: 0.15 nM

B10: CB-8-13 (antibody, human IgG1, V domains shown)
VH: B1 VH with T28R, N57R
VL: B1 VL with S53R
EC50 for antibody-induced cell activation, as determined by the reporter-based assay [2]: 0.88 nM

Next, values leading:

EC50, luciferase reporter-based assay (receptor activation) [4]: > 100 nM
EC50, luciferase reporter-based assay (receptor activation) [5]: 0.17 nM
B2: CB-8-42 (antibody, human IgG1, kappa, V domains shown)
VH: B1 VH with N55S, Y100L, G101P
VL: DIVMTQSPSSLSAPVGDRVTITCQASQDIRNYINWFQQKPGKAPKLLIYAASYLQSGVPSRFSGSGSGTDFTLTISSLQPEDFATYYCQQSYSTPQWTFGQGTKVEIKR

EC50 for antibody-induced cell activation, as determined by the reporter-based assay [2]: 0.71 nM
B4: CB-8-26 (antibody, human IgG1, V domains shown)
VH: B1 VH with T30K, N57R
VL: B1 VL with S53G

EC50 for antibody-induced cell activation, as determined by the reporter-based assay [2]: 0.54 nM
B6: CB-8-37 (antibody, human IgG1, V domains shown)
VH: B1 VH with T28A, N55S
VL: B1 VL with S53F

EC50 for antibody-induced cell activation, as determined by the reporter-based assay [2]: 1.57 nM
B7: CB-8-41 (antibody, human IgG1, V domains shown)
VH: B1 VH with T28L, N55T
VL: B1 VL with S53H

EC50 for antibody-induced cell activation, as determined by the reporter-based assay [2]: 0.49 nM
B8: CB-8-40 (antibody, human IgG1, V domains shown)
VH: B1 VH with N55S
VL: B1 VL with S53Y
